According to article doi:10.1101/2025.06.13.659407 (2025):

Molecular target: biotinylated preS1 peptide, residues 69–108 (hepatitis B virus (residues numbered …, C-terminal biotin))
Assay: BLI

B1: sEGF4–6-hFc (soluble fusion protein comprising SCARF2's EGF4–6 domains, with an N-terminal HA tag an (Fc fusion)
chain: GSYPYDVPDYAGSSACYCSATSRCDPQTGACLCHAGWWGRSCNNQCACNSSPCEQQSGRCQCRERTFGARCDRYCQCFRGRCHPVDGTCACEPGYRGKYCR
koff: 0.000289 s⁻¹
